Reference: PMC10791543 (Science signaling, 2023)

Assays:
Assay in all cases: other fluorescence titration
[1] = target: recombinant RHOA^WT (human) (UniProt P61586)
[2] = target: recombinant RHOA^L57V (human) (UniProt P61586)
[3] = target: recombinant RHOA^L57V (human, UniProt P61586 1-193, L57V)
[4] = target: recombinant RHOA^WT (human, UniProt P61586 1-193)
Chain of recombinant RHOA^WT (P61586 whole entry): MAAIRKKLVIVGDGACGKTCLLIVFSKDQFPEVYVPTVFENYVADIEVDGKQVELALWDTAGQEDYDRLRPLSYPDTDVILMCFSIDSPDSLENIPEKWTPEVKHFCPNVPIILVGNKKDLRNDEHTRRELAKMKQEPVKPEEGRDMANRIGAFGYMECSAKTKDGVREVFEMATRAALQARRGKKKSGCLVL

Chain of recombinant RHOA^WT (human) (P61586 whole entry): as above
Chain of recombinant RHOA^L57V (human) (P61586 whole entry L57V): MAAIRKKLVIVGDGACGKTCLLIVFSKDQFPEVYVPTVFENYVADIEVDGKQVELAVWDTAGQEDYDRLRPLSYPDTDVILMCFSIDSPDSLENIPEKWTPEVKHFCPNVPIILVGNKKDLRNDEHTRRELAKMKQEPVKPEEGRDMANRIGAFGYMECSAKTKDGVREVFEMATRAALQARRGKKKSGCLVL
Chain of recombinant RHOA^L57V (P61586 whole entry L57V): as above

Molecule: GST-ROCK1-RBD (domain or fragment)
- Kd [1]: 439 nM
- Kd [2]: 243 nM

B1: GST-Rhotekin-RBD (domain or fragment, mouse, UniProt Q8C6B2-2 7-89, looked up)
chain: ILEDLNMLYIRQMALSLEDTELQRKLDHEIRMRDGACKLLAACSQREQALEATKSLLVCNSRILSYMGELQRRKEAQVLEKTG
- Kd [3]: 220 ± 10 nM
- Kd [4]: 258 ± 15 nM
